From PMC8442553 (Science (New York, N.Y.), 2019)
Each block holds one binder with its values, some of them ahead of it.

Columns and labels:
Assay in all cases: cryo-EM structure
Sth1 = target: T1, Sth1 (yeast, UniProt P32597 1-1359)
T1 sequence: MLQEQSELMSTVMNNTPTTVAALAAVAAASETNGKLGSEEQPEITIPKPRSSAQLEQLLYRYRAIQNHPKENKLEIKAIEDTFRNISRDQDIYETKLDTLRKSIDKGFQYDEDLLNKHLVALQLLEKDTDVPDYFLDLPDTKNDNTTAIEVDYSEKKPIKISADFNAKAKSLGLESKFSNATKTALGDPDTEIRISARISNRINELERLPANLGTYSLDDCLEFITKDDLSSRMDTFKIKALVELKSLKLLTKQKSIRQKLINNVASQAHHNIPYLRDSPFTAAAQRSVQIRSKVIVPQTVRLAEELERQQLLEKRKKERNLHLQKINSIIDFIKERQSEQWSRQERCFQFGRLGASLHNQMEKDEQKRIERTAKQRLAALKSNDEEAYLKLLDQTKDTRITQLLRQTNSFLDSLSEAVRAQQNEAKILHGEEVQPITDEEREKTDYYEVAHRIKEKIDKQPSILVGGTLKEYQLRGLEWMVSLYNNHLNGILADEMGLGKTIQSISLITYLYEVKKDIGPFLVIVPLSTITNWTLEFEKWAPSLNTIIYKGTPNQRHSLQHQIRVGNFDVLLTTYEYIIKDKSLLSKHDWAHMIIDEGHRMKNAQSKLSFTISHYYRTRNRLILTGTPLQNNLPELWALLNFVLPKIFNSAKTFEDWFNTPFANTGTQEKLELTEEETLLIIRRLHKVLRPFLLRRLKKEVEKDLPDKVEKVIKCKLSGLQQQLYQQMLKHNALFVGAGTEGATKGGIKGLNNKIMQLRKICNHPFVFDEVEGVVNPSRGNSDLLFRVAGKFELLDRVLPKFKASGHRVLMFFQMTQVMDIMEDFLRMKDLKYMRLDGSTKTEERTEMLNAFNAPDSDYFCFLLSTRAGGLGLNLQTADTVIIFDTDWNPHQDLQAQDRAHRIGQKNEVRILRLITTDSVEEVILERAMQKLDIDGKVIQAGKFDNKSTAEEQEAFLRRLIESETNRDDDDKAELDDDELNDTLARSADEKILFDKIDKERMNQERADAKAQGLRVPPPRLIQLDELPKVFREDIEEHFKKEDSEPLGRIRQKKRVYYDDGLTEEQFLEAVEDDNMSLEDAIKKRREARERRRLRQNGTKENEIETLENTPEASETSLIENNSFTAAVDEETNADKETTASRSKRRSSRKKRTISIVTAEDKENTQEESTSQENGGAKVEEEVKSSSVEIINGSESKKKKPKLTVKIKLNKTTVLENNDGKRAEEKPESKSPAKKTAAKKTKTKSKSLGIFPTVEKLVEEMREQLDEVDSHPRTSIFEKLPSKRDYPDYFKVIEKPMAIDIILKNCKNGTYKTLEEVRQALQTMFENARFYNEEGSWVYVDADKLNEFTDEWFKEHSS

Rsc8 = target: T2, Rsc8 (yeast, UniProt P43609 1-557)
T2 sequence: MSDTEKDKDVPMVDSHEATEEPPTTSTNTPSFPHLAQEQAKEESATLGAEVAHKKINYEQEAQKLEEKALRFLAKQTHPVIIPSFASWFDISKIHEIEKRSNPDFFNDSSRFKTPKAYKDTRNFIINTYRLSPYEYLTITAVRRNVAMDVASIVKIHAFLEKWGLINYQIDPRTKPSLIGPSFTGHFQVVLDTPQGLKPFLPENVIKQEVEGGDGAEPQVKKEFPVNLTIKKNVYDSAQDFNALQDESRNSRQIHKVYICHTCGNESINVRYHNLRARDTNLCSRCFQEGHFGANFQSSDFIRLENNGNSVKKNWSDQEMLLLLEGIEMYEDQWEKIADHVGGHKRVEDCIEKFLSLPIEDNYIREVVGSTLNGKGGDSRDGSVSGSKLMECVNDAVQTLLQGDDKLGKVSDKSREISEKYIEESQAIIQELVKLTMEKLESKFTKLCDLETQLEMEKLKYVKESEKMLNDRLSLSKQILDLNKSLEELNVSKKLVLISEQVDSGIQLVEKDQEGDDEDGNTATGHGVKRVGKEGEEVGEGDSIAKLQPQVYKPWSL

Rsc3 = target: T3, Rsc3 (yeast, UniProt Q06639 1-885)
T3 sequence: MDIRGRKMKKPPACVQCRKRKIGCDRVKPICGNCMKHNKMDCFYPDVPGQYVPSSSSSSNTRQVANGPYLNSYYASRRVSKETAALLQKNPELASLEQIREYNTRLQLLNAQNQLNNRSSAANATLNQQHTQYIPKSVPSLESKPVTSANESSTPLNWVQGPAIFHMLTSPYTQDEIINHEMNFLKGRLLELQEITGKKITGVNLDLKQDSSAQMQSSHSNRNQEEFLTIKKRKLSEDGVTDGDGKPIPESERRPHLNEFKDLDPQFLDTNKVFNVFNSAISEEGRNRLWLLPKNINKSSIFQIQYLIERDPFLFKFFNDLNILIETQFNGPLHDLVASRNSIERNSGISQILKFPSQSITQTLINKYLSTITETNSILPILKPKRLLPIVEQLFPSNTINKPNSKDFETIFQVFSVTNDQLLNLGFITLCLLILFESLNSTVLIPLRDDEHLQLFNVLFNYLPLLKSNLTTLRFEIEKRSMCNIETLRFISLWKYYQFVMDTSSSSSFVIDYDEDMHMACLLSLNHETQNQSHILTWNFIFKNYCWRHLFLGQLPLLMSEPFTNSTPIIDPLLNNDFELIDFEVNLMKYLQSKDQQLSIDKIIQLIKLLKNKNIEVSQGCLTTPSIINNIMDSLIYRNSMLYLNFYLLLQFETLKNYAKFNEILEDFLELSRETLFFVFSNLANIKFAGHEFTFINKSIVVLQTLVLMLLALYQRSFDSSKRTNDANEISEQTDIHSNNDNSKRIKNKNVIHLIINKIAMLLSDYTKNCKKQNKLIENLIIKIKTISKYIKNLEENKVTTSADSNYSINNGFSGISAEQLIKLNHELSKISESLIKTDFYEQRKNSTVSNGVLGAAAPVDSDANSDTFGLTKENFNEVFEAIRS

B1: Rtt102 (natural protein, yeast)
chain: MDPQTLITKANKVSYYGNPTSKESWRYDWYQPSKVSSNVQQPQQQLGDMENNLEKYPFRYKTWLRNQEDEKNLQRESCEDILDLKEFDRRILKKSLMTSHTKGDTSKATGAPSANQGDEALSVDDIRGAVGNSEAIPGLSAGVNNDNTKESKDVKMN
binding result (Sth1): binds

B2: Htl1 (natural protein, yeast)
chain: MSQNNTISSMNPERAYNNVTLKNLTAFQLLSQRENICELLNLVESTERHNSIINPERQRMSLEEMKKMLDALKNERKK
binding result (Rsc8): binds

B3: Rsc30 (natural protein, yeast)
chain: MMDMQVRKVRKPPACTQCRKRKIGCDRAKPICGNCVKYNKPDCFYPDGPGKMVAVPSASGMSTHGNGQGSNHFSQGNGVNQKNVMIQTQYPIMQTSIEAFNFSFNPSVDTAMQWTKAASYQNNNTNNNTAPRQNSSTVSSNVHGNTIVRSDSPDVPSMDQIREYNTRLQLVNAQSFDYTDNPYSFNVGINQDSAVFDLMTSPFTQEEVLIKEIDFLKNKLLDLQSLQLKSLKEKSNLNADNTTANKINKTGENSKKGKVDGKRAGFDHQTSRTSQSSQKYFTALTITDVQSLVQVKPLKDTPNYLFTKNFIIFRDHYLFKFYNILHDICHINQFKVSPPNNKNHQQYMEVCKVNFPPKAIIIETLNSESLNNLNIEEFLPIFDKTLLLEFVHNSFPNGDTCPSFSTVDLPLSQLTKLGELTVLLLLLNDSMTLFNKQAINNHVSALMNNLRLIRSQITLINLEYYDQETIKFIAITKFYESLYMHDDHKSSLDEDLSCLLSFQIKDFKLFHFLKKMYYSRHSLLGQSSFMVPAAENLSPIPASIDTNDIPLIANDLKLLETQAKLINILQGVPFYLPVNLTKIESLLETLTMGVSNTVDLYFHDNEVRKEWKDTLNFINTIVYTNFFLFVQNESSLSMAVQHSSNNNKTSNSERCAKDLMKIISNMHIFYSITFNFIFPIKSIKSFSSGNNRFHSNGKEFLFANHFIEILQNFIAITFAIFQRCEVILYDEFYKNLSNEEINVQLLLIHDKILEILKKIEIIVSFLRDEMNSNGSFKSIKGFNKVLNLIKYMLRFSKKKQNFARNSDNNNVTDYSQSAKNKNVLLKFPVSELNRIYLKFKEISDFLMEREVVQRSIIIDKDLESDNLGITTANFNDFYDAFYN
binding result (Rsc3): binds

B4: Arp9 (natural protein, yeast)
chain: MAPFRQDSILIIYPRSQTTLVQFGLNEETFTVPELEIPTQIYRTTRQDGSYTYHSTNKDNKAELIKPIQNGEIIDISAFTQFLRLIFVSILSDRANKNQDAFEAELSNIPLLLITHHSWSQSDLEIITQYVFESLEINNLIQLPASLAATYSMISLQNCCIIDVGTHHTDIIPIVDYAQLDHLVSSIPMGGQSINDSLKKLLPQWDDDQIESLKKSPIFEVLSDDAKKLSSFDFGNENEDEDEGTLNVAEIITSGRDTREVLEERERGQKVKNVKNSDLEFNTFWDEKGNEIKVGKQRFQGCNNLIKNISNRVGLTLDNIDDINKAKAVWENIIIVGGTTSISGFKEALLGQLLKDHLIIEPEEEKSKREEEAKSVLPAATKKKSKFMTNSTAFVPTIEYVQCPTVIKLAKYPDYFPEWKKSGYSEIIFLGAQIVSKQIFTHPKDTFYITREKYNMKGPAALWDVQF
binding result (Sth1): binds

B5: Rsc58 (natural protein, yeast)
chain: MTESVGGNKLVDFLVNVQSILNAASVKCHVVDESFPAKFFEKNPDKIYESYCKFIKNRSNSEGLIRNEDKLVLTTINKRFENGEYEPIQGGFYKLYHDIKLVCTILIHFYPQGTRNYQLVDKFYKFSSELLLRECCRIGIALTQTNNIKSRSGKLLSGNEMDEYDDDDATELDKIISYDFIKISMNYTVPISQTYQIRTKDMDLFSSIISKSNLDKRPHELPNTNFKINNVLPQTDIENEAPRLGFVGANTSNIPDPTLPPTEMMTRFLHPNWYALPTTVWLKYGNYNSWAPSFNENGTVVDSTTRGLIWLERIGYMDLYEKNEKKVKQEELLNTNEEGINRKQNDENNKNVDGKSNGVQDDGGDNDNDATIASANSESTENKEQFIIKLQNLYNWTPSNYIGDDEIENFRNGTPDKLVSDSLLKLKRLRKERILNKVLKPTTEERELYFKVKRILKEVILAKKVSKVPINNVRAFPVLQTNYNGSIPVVRAQPGRKRKHKK
binding result (Sth1): binds
binding result (Rsc8): binds

Further lines, results first:

binding result (Sth1): binds
B6: Arp7 (natural protein, yeast)
chain: MTLNRKCVVIHNGSHRTVAGFSNVELPQCIIPSSYIKRTDEGGEAEFIFGTYNMIDAAAEKRNGDEVYTLVDSQGLPYNWDALEMQWRYLYDTQLKVSPEELPLVITMPATNGKPDMAILERYYELAFDKLNVPVFQIVIEPLAIALSMGKSSAFVIDIGASGCNVTPIIDGIVVKNAVVRSKFGGDFLDFQVHERLAPLIKEENDMENMADEQKRSTDVWYEASTWIQQFKSTMLQVSEKDLFELERYYKEQADIYAKQQEQLKQMDQQLQYTALTGSPNNPLVQKKNFLFKPLNKTLTLDLKECYQFAEYLFKPQLISDKFSPEDGLGPLMAKSVKKAGASINSMKANTSTNPNGLGTSHINTNVGDNNSTASSSNISPEQVYSLLLTNVIITGSTSLIEGMEQRIIKELSIRFPQYKLTTFANQVMMDRKIQGWLGALTMANLPSWSLGKWYSKEDYETLKRDRKQSQATNATN

binding result (Rsc8): binds
B7: Rsc7 (natural protein, yeast)
chain: MSDSEGGLASEVEHEKRSRSTSNRPNYAIDTEDLDIDENDENEDDDYREEEANEGVNEEEISDEEEQINKSGRNKRRHVDEEEDLSEDKGVTRSRNRSKFKKPVFPGIDDAEENLNPLKVVNEEYVLPDDPEGETKITADGDLLGGREFLVRTFTLTEKGNRKFMLATEPARIVGFRDSYLFFQTHPNLYKFILNQTQKNDLIDRGVLPYSYRNRQIALVTARGVFKEFGAKIIRGGKHITDDYYASELRTKGNVIEGKLAGDPIDKSARALETMMYPASENGINPAKNQVEFFEHRPHGHMSNSNIIASGSKLSSTNWLYQHSAACSRFNSDLFYDRVKVLLVDQQGLRDAYTNILHIPESTQSTTVLGWRRSKNDSPSDTSIVYETVIHDNDLNKPKTGLSEIPKEIYEDVVDEDVLRAITEQQNFEKCNEYI
